Patent US20200109202A1

What was measured:
[1] = target: human CD16A-158F ECD fused to monomeric Fc (human) (UniProt P08637); test: SPR, Biacore T200, receptor captured, 1:1 model
[2] = target: human CD16A-158V ECD fused to monomeric Fc (human) (UniProt P08637); test: SPR, Biacore T200, receptor captured, 1:1 model
human CD16A-158V ECD fused to monomeric Fc (human), sequence (P08637 17-208 F176V): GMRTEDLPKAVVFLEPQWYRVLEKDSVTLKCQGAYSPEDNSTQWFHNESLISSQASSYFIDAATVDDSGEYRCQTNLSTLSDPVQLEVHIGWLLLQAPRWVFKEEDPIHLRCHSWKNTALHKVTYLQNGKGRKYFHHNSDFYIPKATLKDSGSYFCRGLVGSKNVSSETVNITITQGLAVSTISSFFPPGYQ

human CD16A-158F ECD fused to monomeric Fc (human), sequence (P08637 17-208): as the sequence (P08637 17-208 F176V) above, with V160F counted along it

Kd [1] [nM]	koff [1] [s⁻¹]	kon [1] [M⁻¹ s⁻¹]	Kd [2] [nM]	koff [2] [s⁻¹]	kon [2] [M⁻¹ s⁻¹]	Substance
2720	0.0675	24800	424	0.00995	23500	human IgG1 (IgG1 Fc wildtype) (antibody)
–	–	–	13.5	0.00639	474000	human IgG1 Fc-enhanced (S239D/I332E) (antibody)
34700	0.71	20400	–	–	–	human IgG1 Fc-silenced (L234F/L235E/D265A) (antibody)
